In a protein production outcome set (Wang et al. 2014) one finds protein production data, which are given here for 18 sequences.

A short description of this data set: label from the status in PepcDB records.
Take “MNYKLTLHPGSNPVEEFTSIPHGVTSLDLSLNNLYSISTVELIQAFANTPASVTSLNLSGNSLGFKNSDELVQILAAIPANVTSLNLSGNFLSYKSSDELVKTLAAIPFTITVLDLGWNDFSSKSSSEFKQAFSNLPASITSLNLRGNDLGIKSSDELIQILAAIPANVNSLNLRGNNLASKNCAELAKFLASIPASVTSLDLSANLLGLKSYAELAYIFSSIPNHVVSLNLCLNCLHGPSLENLKLLKDSLKHLQTVYLDYDIVKNMSKEQCKALGAAFPNIQKIILVDKNGKEIHPSHSIPISNLIRELSGKADVPSLEHHHHHH”: the protein production result is recorded as “not failed”.

For “MKKNKIGGSQSMFNKVWFRTGIFFIMLFILIKLFMEVHEVFAPIATIIGSVFLPFLISGFLFYICLPFQNILEKWGFPRWASITTIFIGLIVIIAIVVSFIAPIIISNINNLIKQTPSLQKEAEQLINFSLRQMDKLPDDVTHRINKAVKSMGDGATSILSNSVSYITSFISTVFLLIMVPFFLIYMLKDHEKFIPAIGKFFKGERKVFVVDLLKDLNFTLKSYIQGQVTVSIILGIILYIGYTIIGLPYTPLLVLFAGVANLIPFLGPWLSFAPAAILGIIDGPSTFIWVCVVTLIAQQLEGNVITPNVMGKSLSIHPLTIIVVILAAGDLGGFTLILVAVPLYAVIKTLVSNIFKYRQRIVDKANSNVKD”, the protein production entry is listed as “failed”. With “ATLKQLDGIHVTILHKEEGAGLGFSLAGGADLENKVITVHRVFPNGLASQEGTIQKGNEVLSINGKSLKGTTHHDALAILRQAREPRQAVIVTRKLTPEAMPDLNS” the entry was “not failed”; with “VWRQYASRALQELGAGKRAIHDVADLTRGSLRIAVTPTFTSYFIGPLMADFYARYPSITLQLQEMSQEKIEDMLCRDELDVGIAFAPVHSPELEAIPLLTESLALVVAQHHPLAVHEQVALSRLHDEKLVLLSAEFATREQIDHYCEKAGLHPQVVIEANSISAVLELIRRTSLSTLLPAAIATQHDGLKAISLAPPLLERTAVLLRRKNSWQTAAAKAFLHMALDKCAVVGGNESR”, “not failed”. With “MQNTKLYSLTLIALGAAIIAVLSPLSIPIGIVPVTLQTLAVGLVATVLKARETFFAILLYLLLGFIGIPVFTGGTSGIAVLFGPTGGFLIAFLIMGTLISFGLHQINYKTIPAFIINIVGHLLMLVIGTLWLKFFTNVDWSLALKLGFTPFVIVEIIKAVLVTIFGLALIRALSHTNKYFTN” the entry was “failed”; with “MAARNAFYAQSGGVTAVINASACGVLETARQYPDRIGTVYAGRNGIVGALTEDLIDTGQESAEAIAALRHTPSGAFGSCRYKLKGLEENRAQYERLIEVFRAHDIGYFFYNGGGDSADTCLKVSQLSEKLGYPLQAVHIPKTVDNDLPITDCCPGFGSVAKYIAVSVREASFDVRSMAATSTCIFVLEVMGRHAGWIAAAGGLASDERHELALVILFPEQVFDPERFLRAVDEKVRSHGYCSVVVSEGIRGADGRFVAESGSRDVFGHARLGGVAPVIADLIKERLGYKYHWAVADYLQRAARHIASRTDVEQAYAVGKAGVEMALKGLSAVMPAIVRTSDSPYRWEITAASLAEVANVEKKMPLEFISADGFGITEACRRYLRPLIEGEDYPPYAGGLPDYVTLCNVAVPKKLAASFSV”, “failed”; with “MLFFNVASLKYKHHESIQMIIDRIDHLVLTVSDISTTIRFYEEVLGFSAVTFKQNRKALIFGAQKINLHQQEMEFEPKASRPTPGSADLCFITSTPINDVVSEILQAGISIVEGPVERTGATGEIMSIYIRDPDGNLIEISQYVLEHHHHHH”, “not failed”. The value for “MRILADTNVIIDALTSREPWNKSAEEIFLMAANHTIEMYITASSATDIYYLIRKHLHNTETAKMIMGKLYSLTGILEVTADDCMDALASAISDYEDAVVEKVASRKDMDYIVTRNIKDYQAGGTKIILPDDFVKLVEEELEHHHHHH” was “failed”. As to “MFLKKGKKKLYKSGKNWVAALLLSAAVLSFYSAGLNQQTASAATSSQTKAVSYDKITNKQTVNYSAYVNENNRNDGLYSAPALTDVASMTSTGSAKSLNGHLVMVSEIDTTKRASTGVSYQYAKITDNNKSYWVDLRALNDSAQITSTQTVNFQAYINGDTRNDGLYSAPALTTSSSLTPLAYSKSLNKKSVMVSEINTTKRASTGLSYQYAKITYNGKTYWVDARAVFDSITSKQTNLNYYATISETNRNDGIYEEPALTSLASMASTGSVKTFDQDSVEVLEIDTTFRNSNDQKYQYAKVTNGTNTYWVDVRALNTSGFAKITSSKTEDYSAYINEANRKDSIYDNGPALTSPTTLTASALAKTVNGDQVEVIALDTTTRSNGSQYTYLEVKDGSNTYWIDSRAVTAYNFDSITNQQTVNETATINEGGRSDGLYNAPALTSPSSLTSTGSAKDLDGQTVTILEIDTTKRASNGNTYQYAKIAYNGKTYWVDARALNNSTYSGAIMVNFEDENGNQLASPIEYTGKIGSTYQPEPKAITGYSVDLAKTGSIDLTYSSTTQTITYIYEKSTATTTDLINGQGQGIDNDSWTVGSDVQPGWYKITPIGLGTDDNIVLNVEGSDSSDLPLANDISGAWFGSDSSAGEISSYQAYLTAGQVIEMQDNGTDAAAGQGLHLETLSTRPATSLIDPESPIPSSFQDLGAGIYEVGVDIRPGNYQVADILGEGYLYTDDGTVSLDLGTGHGDTSTGTITLTTGELLTSTINGISLEPEN”, the protein production result is recorded as “failed”. Consider “VLTPRHIATLFTKLIPFKKNDKILDLCCGTGAFLIAGMNKLLSLKGIDAQNVKSNQLLGFEINPTMYICAISNMLFRGDGKSKIYNMDSINDDKVNKIISESAPTIGFINPPYSGKENKEDPTPKEITFLKKC”, for which the protein production result was “failed”. With “MFGFFSPAPAIPRLPKDKVSSAYKAYRIRMFLMIFIGYTGYYLVRKNFAVASPYLIDNYGFSKTQIGLISMGLAVSYGLSKFILGNLSDKSNVKKFICFGLIASSVLSVLMGFARTVPIFLILMVFNGFFQGMGAPPCSIVLGKWFSQKERGLKMGIWNTSHNIGGGLIAPIATLCLLVFGQNHFQSIFFVPAIICTIVALFCYVIGADTPASVGLPPVEEYRNDYPEVKAEVNPTTLSSKEIMVKYVLKNKYVWYLALANIFVYLIRQGVVNWIPIYLKESKGFSAANANWAMFLFEYAAIPASILLGWLSDVVFKGKRAPLSILCMIGVIFATVAYWQTSSTLVTMISVAFIGCFIYGPQLLIGMNLIDVVPNFAVGSATGFSGLCGYLLGEFMADFVLGMIADSFGWNGAFIFIIVGAFIALLLLALTLKIKKNPQVEDKIA” the entry was “failed”; with “MAASAAATAAASAATAASAASGSPGSGEGSAGGEKRPAASSAAAASAAASSPAGGGGEAQELLEHCGVCRERLRPERDPRLLPCLHSACSACLGPATPAAANNSGDGGSAGDGAMVDCPVCKQQCYSKDIVENYFMRDSGSKASSDSQDANQCCTSCEDNAPATSYCVECSEPLCETCVEAHQRVKYTKDHTVRSTGPAKTRDGERTVYCNVHKHEPLVLFCESCDTLTCRDCQLNAHKDHQYQFLEDAVRNQRKLLASLVKRLGDKHATLQKNTKEVRSSIRQVSDVQKRVQVDVKMAILQIMKELNKRGRVLVNDAQKVTEGQQERLERQHWTMTKIQKHQEHILRFASWALESDNNTALLLSKKLIYFQLHRALKMIVDPVEPHGEMKFQWDLNAWTKSAEAFGKIVAERPGTNSTGPGPMAPPRAPGPLSKQGSGSSQPMEVQEGYGFGSDDPYSSAEPHVSGMKRSRSGEGEVSGLLRKVPRVSLERLDLDLTSDSQPPVFKVFPGSTTEDYNLIVIERGAAAAAAGQAGTVPPGAPGAPPLPGMAIVKEEETEAAIGAPPAAPEGPETKPVLMPLTEGPGAEGPRLASPSGSTSSGLEVVAPEVTSAPVSGPGILDDSATICRVCQKPGDLVMCNQCEFCFHLDCHLPALQDVPGEEWSCSLCHVLPDLKEEDGSLSLDGADSTGVVAKLSPANQRKCERVLLALFCHEPCRPLHQLATDSTFSMEQPGGTLDLTLIRARLQEKLSPPYSSPQEFAQDVGRMFKQFNKLTEDKADVQSIIGLQRFFETRMNDAFGDTKFSAVLVEPPPLNLPSAGLSSQELSGPGDGP”, “not failed”. The value for “MSELRILRAVDYPRMPWKNGAGSTEEIARDGGDGLDGFGWRLSIADVGESGGFSGFAGYQRIISVLEGGGMRLRVDGAESAPLRARQAFAFSGDSEVHCTLLDGAIRDFNLIYAPRRHRARLQWLRVEGELDWHGTASTLLLFAQQDGVAISLQGQPRGQLAAHDCLCAEGLQGLQHWRLTAHEPAWVCAVELDSL” was “not failed”; that for “MMIMKRLLFLVSVCSLCMVGNSQNYQPEKHAVVKSDRGDGRLLSTYAIVHEMLKDTHPQYAYRSGMSAQEFTQWQDGVRAAMVEIMKFPEIKRQPSPVCVKTEKKEGYILEKWEFYPFPKSVSTFLVLKPEHLKGAVPGVLCIPGSGRTKEGLVGEPGICDKLTEDYNNPKVSMALNMVKEGYVAVAVDNAAAGEASDLECYDKGWNYDYDVVSRFLLELGWSWLGYTSYLDMQVLNWMKAQSYIRKDRIVISGFSLGTEPMMVLGVLDKDIYAFVYNDFLCQTQERAVVMTKPDKENRRPFPNSIRHLIPGYWRYFNFPDVVASLAPRPIIFTEGGLDRDFRLVQSAYAASGKPENAEFHHYPKFADKAVRKDVEHLDEGLDSKTYFEAVNVDPPSHYFKNELVIPWLRKVLK” was “failed”. With “MRLLVAFAVIYFISISPVCAENTASTINIPTPAIESPLASKSLLLDISLIGQEKLVTVGQHGHILLSNDGKKWQQANVPVQVTLTNVFFLNEQLGWAVGHDATILHSQDGGLNWQVQQYLPLLEKPLFDIYFKNPQQGIAVGAYGQVFRTNDGGSTWQNEFHQEILLADDVEYLNELKAEDEAAYLDEITFILPHFNRLVQDGGSLFLLGETGLLAKSDDFGLTWQQFDNFYQGSFFSLARTKTGNVLVAGLRGHVFRSLNHGSQWDEVPTNTTALLNDIVFANDERIFILGNNGMLLISTDDGESFSKIPQQDGKTLIAGVWFKGQLIAVSDVGIKVVDLSQELEHHHHHH” the entry was “failed”.

For the sequence “IRSIWENNGFGLMSSKTMTDFDYWISDFEKIGASQKEAEQLIVKAIEIAIDANARNYNYINAILKDWEQRGFKSVEEREAARKQKKTTKKQKSNTGHSDYDDLGF”, the protein production entry is “not failed”.

“MFGGAKGGHFGVPPAGYSGAVPQSEAGTKAGPAGGRPADTMWRVRCKAKGGTHLLQGLSSRTRLRELQGQIAAITGIAPGSQRILVGYPPECLDLSDRDITLGDLPIQSGDMLIVEEDQTRPKASPAFSKYGAPSYVREALPVLTRTAVPADNSCLFTSVYYVVEGGVLNPACAPEMRRLIAQIVASDPVLYSEAILGKTNEDYCDWIRRDDTWGGAIEISILSKFYQCEICVVDTQTVRIDRFGEDAGYTKRVLLIYDGIHYDPLQRNFPDPDTPPLTIFSSNDDIVLVQALELADEARRKRQFTDVNRFTLRCMICQKGLTGQAEARDHARETGHTNFGEV”: the protein production entry is on record as “failed”. Regarding “MPSEVTEEFIIIIAVVLIGLVLFGFVTSYFIPHEIFSLAQQQASSISSSTTVSVGPLIFNSGSASTVIEAYNPAISGNITLIVFPEPSYLQQDVGLVTPQSPPQFSVYLSNEKLAKSFTISIPIYDVNGRIIYDSQITAYTVPFNTPVTITVNGVGGSNYILIVWVLYNSNGYWFRIGYTFTGVPST”, the protein production result is given as “failed”.
